Test results: the supplement of paper PMC6757056
± gives the standard deviation of the averaged measurements.

B1: library; a variant is named by its letters at N, in order (parent)
chain: GCUGUCACCGGUGCUUGGUACGUUAUAUUCAGCCGGUCUGAUGAGUCUNNNNNNAGACGAAACAGC

How the values were obtained:
(6R,S)-folinic acid [1] = variants of: B1; experiment: normalized RNA/DNA level without ligand (relative to sTRSVctl = 100) (log10 (% of sTRSVctl)); HEK293T overexpressing SLC46A1; higher = less ribozyme self-cleavage, higher mRNA level; settings: without (6R,S)-folinic acid; ligand present: no
In short: (§1)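 HEK293T cells were transfected with library plasmids carrying ribozyme switches linked to an mCherry reporter, or an eGFP reporter in some ligand experiments, at 4 µg per well of a 6-well plate, with any ligand added 1 h beforehand. After 72 h, total RNA was extracted with EDTA, reverse-transcribed, amplified, barcoded and sequenced. RNA level was defined as RNA reads over DNA reads, normalized to a spiked-in non-cleaving sequence or to the top-ranked sequences. That value was multiplied by 100 and converted to log10, the top set was 25 sequences, and only sequences with ≥100 DNA reads were retained.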

(6R,S)-folinic acid [2] = variants of: B1; experiment: normalized RNA/DNA level with ligand (relative to sTRSVctl = 100) (log10 (% of sTRSVctl)); HEK293T overexpressing SLC46A1; ligand concentration (+) RNA-Seq: 6 mM; higher = less ribozyme self-cleavage, higher mRNA level; settings: with (6R,S)-folinic acid; ligand present: yes
In short: as §1

Variant	normalized RNA/DNA level without ligand (log10) ((6R,S)-folinic acid [1])	normalized RNA/DNA level with ligand (log10) ((6R,S)-folinic acid [2])
GGCUCU	2.087 ± 0.0098	2.05 ± 0.038
GGCUCC	2.0314 ± 0.0019	2.02 ± 0.046
GGCUCG	2.067 ± 0.014	2.03 ± 0.042
GGCUCA	2.073 ± 0.011	2.01 ± 0.033
UGGCAU	1.965 ± 0.014	2.01 ± 0.021
UGGCAA	1.97 ± 0.024	2.01 ± 0.033
UGGCAC	2.041 ± 0.016	2.04 ± 0.042
AGGAUC	2.059 ± 0.012	2.014 ± 0.013
AGGAUU	2.024 ± 0.017	2.05 ± 0.028
AGGAUG	1.92 ± 0.031	2.037 ± 0.019
AGCUCU	2.02 ± 0.039	2.055 ± 0.0097
AGCUCC	2.095 ± 0.0069	2.04 ± 0.042
AGCUCA	2.07 ± 0.026	2.01 ± 0.04
AGCUCG	1.99 ± 0.024	1.998 ± 0.0042
UGGAGC	1.996 ± 0.0034	2.06 ± 0.036
AGCUAC	2.029 ± 0.012	2.01 ± 0.063
AGCUAG	1.935 ± 0.002	2.01 ± 0.025
AGCUAU	1.987 ± 0.014	2.009 ± 0.018
CGCUUA	2.002 ± 0.011	2.014 ± 0.019
CGCUUG	2.066 ± 0.018	2.041 ± 0.015
CGCUUC	2.1105 ± 0.0021	2.09 ± 0.066
CGCUGA	2.075 ± 0.003	2.05 ± 0.03
CGCUGU	2.03 ± 0.038	2 ± 0.02
CGCUGG	1.974 ± 0.0042	2.016 ± 0.0049

Variant	normalized RNA/DNA level without ligand (log10) ((6R,S)-folinic acid [1])	normalized RNA/DNA level with ligand (log10) ((6R,S)-folinic acid [2])
AGGCAG	1.965 ± 0.0036	1.99 ± 0.053
AGCUGA	2.0496 ± 0.0016	2.028 ± 0.014
AGCUGG	2.05 ± 0.0052	2.06 ± 0.031
AGCUGU	2.039 ± 0.012	2.032 ± 0.016
AGCUGC	2.038 ± 0.014	2.05 ± 0.022
GGCUAU	2.051 ± 0.0061	2.01 ± 0.027
GGCUAG	2.063 ± 0.0075	2.042 ± 0.004
GGCUAC	2.02 ± 0.042	2.05 ± 0.021
AGGACA	1.989 ± 0.0041	2.02 ± 0.038
AGGACU	1.993 ± 0.0073	2.009 ± 0.017
AGGACC	2.029 ± 0.0033	1.99 ± 0.043
AGGACG	1.962 ± 0.0089	2.032 ± 0.014
CGGCAA	2.086 ± 0.0085	2.05 ± 0.023
CGGCAG	1.997 ± 0.0087	2.01 ± 0.052
CGGCAC	2.102 ± 0.011	2.052 ± 0.0022
UGGCCU	2.043 ± 0.014	2.03 ± 0.024
UGGCCG	2.01 ± 0.036	2.03 ± 0.046
UGGCCC	2.059 ± 0.0063	2.06 ± 0.068
UGCUUA	2.003 ± 0.0057	2.03 ± 0.026
UGCUUU	2.016 ± 0.0073	2.032 ± 0.0036
UGCUUC	2.04 ± 0.027	2.04 ± 0.043
UGGAUC	2.039 ± 0.01	2.01 ± 0.032
UGGAUA	1.93 ± 0.022	1.99 ± 0.031
CGGACC	2.072 ± 0.0055	2.0545 ± 0.0011

Variant	normalized RNA/DNA level without ligand (log10) ((6R,S)-folinic acid [1])	normalized RNA/DNA level with ligand (log10) ((6R,S)-folinic acid [2])
CGGACU	2.043 ± 0.0042	2.01 ± 0.023
CGGACA	2.037 ± 0.0086	2.02 ± 0.03
CGGACG	2.017 ± 0.012	2.02 ± 0.0049
GGGCAA	2.046 ± 0.013	2.05 ± 0.027
GGGCAC	2.003 ± 0.0062	2.02 ± 0.041
GGGCAG	2.03 ± 0.0034	2.05 ± 0.057
CGCUCU	2.1 ± 0.033	2.06 ± 0.033
CGCUCG	2.047 ± 0.0074	2.018 ± 0.015
CGCUCC	2.082 ± 0.015	2.057 ± 0.017
CGCUCA	2.05 ± 0.022	2.038 ± 0.008
CGGAGA	1.997 ± 0.017	2.03 ± 0.042
CGGAGG	1.83 ± 0.02	1.994 ± 0.01
CGGAGU	2.019 ± 0.017	2.025 ± 0.012
CGGAGC	1.994 ± 0.0049	2 ± 0.032
GGGAUA	2 ± 0.028	2.03 ± 0.022
GGGAUC	2.037 ± 0.0086	2.04 ± 0.027
GGGAUU	2.0271 ± 0.0004	2.04 ± 0.047
UGCUAC	2.021 ± 0.0079	2.02 ± 0.071
UGCUAU	1.994 ± 0.0055	2.05 ± 0.03
GGCUUA	2.0768 ± 0.0012	2.03 ± 0.03
GGCUUU	2.079 ± 0.0033	2.041 ± 0.013
GGCUUC	2.085 ± 0.0026	2.08 ± 0.067
GGCUGA	2.094 ± 0.014	2.08 ± 0.052
GGCUGC	2.07 ± 0.0054	2.05 ± 0.021

Variant	normalized RNA/DNA level without ligand (log10) ((6R,S)-folinic acid [1])	normalized RNA/DNA level with ligand (log10) ((6R,S)-folinic acid [2])
GGCUGU	2.067 ± 0.016	2.066 ± 0.019
GGCUGG	2.064 ± 0.0042	2.05 ± 0.046
CGGAAC	1.984 ± 0.0056	2 ± 0.034
CGGAAA	1.9343 ± 0.0017	1.98 ± 0.045
CGGAAG	1.94 ± 0.021	1.98 ± 0.028
AGGCCU	2.07 ± 0.031	2.06 ± 0.0088
AGGCCG	2.039 ± 0.017	2.02 ± 0.039
AGGCCA	2.0454 ± 0.0016	2.04 ± 0.04
AGGCCC	2.068 ± 0.0036	2.03 ± 0.056
UGCUGU	2.015 ± 0.0082	1.995 ± 0.0073
UGCUGC	2.038 ± 0.018	2.01 ± 0.049
GGGAGA	2.021 ± 0.0092	2.05 ± 0.043
UGCUCC	2.062 ± 0.0087	2.03 ± 0.081
UGCUCA	1.982 ± 0.006	1.988 ± 0.013
CGCUAC	2.0081 ± 0.001	2.03 ± 0.048
CGCUAG	2.007 ± 0.0038	2.025 ± 0.011
CGCUAU	1.981 ± 0.0029	2 ± 0.024
GGGAAC	1.997 ± 0.015	2.02 ± 0.032
GGGAAA	1.99 ± 0.0091	2.02 ± 0.036
GGGAAU	2.008 ± 0.0024	2.019 ± 0.02
GGGACG	2.039 ± 0.01	2.06 ± 0.051
GGGACC	2.049 ± 0.0006	2.04 ± 0.024
CGGAUC	2.085 ± 0.011	2.034 ± 0.003
CGGAUU	2.031 ± 0.015	2.02 ± 0.045

Variant	normalized RNA/DNA level without ligand (log10) ((6R,S)-folinic acid [1])	normalized RNA/DNA level with ligand (log10) ((6R,S)-folinic acid [2])
UGGAAU	1.869 ± 0.0092	2 ± 0.024
UGGAAC	1.921 ± 0.0075	2 ± 0.035
UGGAAA	1.919 ± 0.0043	1.98 ± 0.028
UGGACU	2.006 ± 0.0056	2.01 ± 0.023
CGGCCC	2.09 ± 0.035	2.04 ± 0.032
CGGCCG	2.038 ± 0.015	2.03 ± 0.038
CGGCCA	2.111 ± 0.021	2.058 ± 0.0046
CGGCCU	2.0767 ± 0.00028	2.06 ± 0.068
GGGCCU	2.098 ± 0.0088	2.08 ± 0.036
GGGCCA	2.126 ± 0.019	2.09 ± 0.041
GGGCCC	2.102 ± 0.0043	2.08 ± 0.039
GGGCCG	2.091 ± 0.018	2.08 ± 0.047
CGGCGA	2.103 ± 0.016	2.09 ± 0.026
AGCUUU	2.014 ± 0.0092	2.016 ± 0.018
AGCUUA	1.996 ± 0.0022	2.01 ± 0.062
AGCUUC	2.0594 ± 0.00028	2.045 ± 0.011
AGGAAG	1.89 ± 0.0078	2.01 ± 0.043
AGGAAA	1.942 ± 0.0081	1.99 ± 0.04
AGGAGU	1.934 ± 0.0037	2.033 ± 0.014
AGGAGC	1.99 ± 0.016	2.01 ± 0.04
